Reference: patent US11703510B2, “Methods and products for in vivo enzyme profiling” (Massachusetts Institute of Technology, priority 2009, dated 2023)
Square brackets hold non-standard residues; d marks the D form. Ends that are not written are not given here. fluorescein = fluorescein label at the N-terminus

Assay: Optimization of peptide reporters for LC/MS detection
Conditions: compared with other peptides of the same proteolytic-product group with longer or less hydrophilic caps; FIG. 8B
Source text: A series of peptides (A1-A14) of different sequence were investigated to determine optimal sequence length and charge density that would enable facile detection via LC/MS. Three representative proteolytic products, sequences GGVVVLS (SEQ ID NO: 19), GGPVG (SEQ ID NO: 13), and GGdFPipR (SEQ ID NO: 17) were selected and appended with peptide caps of differing length and charge density (FIG. 8A). The sequences were then detected via LC/MS. […] A hydrophilic molecule is a molecule that can transiently hydrogen-bond with water and is, thus, soluble in water and, in some embodiments, in other polar solvents. Hydrophilicity of peptides can be modulated according to methods well known in the art. In some embodiments, removal of the fluorescein tag will increase the hydrophilicity of the peptides reported in this disclosure. In some embodiments, modification of the sequences to contain positively charged residues (Histidine, Lysine, and Arginine) and/or negatively charged residues (glutamic acid and aspartic acid) will increase the hydrophilicity. […] Of the tested cap sequences Fl-dR-dS-dR (SEQ ID NO: 20) and Fl-dR-G-dS-dR (SEQ ID NO: 21) were determined to be advantageous. Accordingly, for non-fluorescent detection, the cap sequences dR-dS-dR (SEQ ID NO: 35) and dR-G-dS-dR (SEQ ID NO: 36) were determined to be advantageous. […]

Substance	detection via LC/MS (normalized relative intensities of the peptide reporters)
Fl-dR-dS-dR (fluorescein-[dR]-[dS]-[dR])	advantageous
Fl-dR-G-dS-dR (fluorescein-[dR]G[dS][dR])	advantageous
